Test results: patent US20050244939A1 (AJINOMOTO, published 2005)

Biological target: the molecule itself
Experiment: X-ray crystal structure (self-association of subunits)
Procedure: The crystals were moved into 0.15M sodium citrate buffer (pH 5.6) containing 25% glycerol and 1.5M ammonium phosphate, and rapidly cooled to −173° C. by blowing nitrogen gas. The X-ray diffraction data of PtALD native crystals was collected using an X-ray diffractometer R-AXIS V++ (Rigaku Co., Ltd.) at the Photon Factory Beamline 6B of the High Energy Accelerator Research Organization (Tsukuba, Japan). The X-ray wavelength was fixed at 1.0 angstrom and the distance from the crystal to an imaging plate detector was 180 mm. Exposure time and an oscillation angle per one imaging plate frame were 120 sec and 0.8°, respectively, and the data for 150 frames was collected. In the crystallographic parameters, the space group was P6₃22, and the lattice constants were a=94.38 angstrom and c=111.49 angstrom. The asymmetric unit contains one aldolase molecule, and the water content of the crystal was 60%. The crystal was diffracted to approximately 1.5 angstrom resolution. The data processing was made with a program Crystal Clear (Rigaku Co., Ltd.). The Rmerge, which indicates the quality of the data, was 0.097 between 40.0-1.5 angstrom resolution, and 0.260 between 1.55-1.50 angstrom resolution in the most outer shell. The completeness of the data was 99.2% between 40.0-1.5 angstrom resolution, and 99.9% between 1.55-1.50 angstrom resolution in the most outer shell. […]

B1: aldolase derived from Pseudomonas taetrolens ATCC4683 (PtALD), wild-type (enzyme)
chain: MSLPGSRIYPSPPQAPRSLLDAFQNVVTPHISDNLGRHIGARGLTRYNHTGKLVGTALTVKTRPGDNLYIYKALTLIEPGHVLVIDAQGDATNAVIGELIKLYAQQRGCVGFVVDGAIRDVASFEDTPCYARSVVHCGPYKSGPGEINVPVSIGGMIINPGDIIVGDEDGLVAFSPDHAEQVLVKAREHDAHEQQVKAEIATGAIDQSWLDKVLEKAGLAN
notes: It was purified and crystallised; The asymmetric unit contains one subunit; also called IHOG aldolase; recombinant PtALD
B1: binds.
